Test results reported in patent US20170081400A1 (CEPHALON, published 2017).

T1: human TL1A extracellular domain with N-terminal HIS and FLAG tag (human, UniProt O95150 72-251)
T1 construct: the whole entry is named
T1 sequence: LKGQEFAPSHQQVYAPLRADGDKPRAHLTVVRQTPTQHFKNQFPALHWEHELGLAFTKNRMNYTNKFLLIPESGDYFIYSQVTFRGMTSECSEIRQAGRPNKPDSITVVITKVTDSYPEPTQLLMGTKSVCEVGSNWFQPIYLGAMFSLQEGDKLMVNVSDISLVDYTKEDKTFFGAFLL


What was measured:
[1] = target: T1, human TL1A extracellular domain with …; assay: SPR Run 6, purified Ab captured on Protein A, TL1A 5 ug/mL, timepoint 44
Text: (§1) 1.5. Antibody expression and antigen binding as determined by SPR. Using a CM5 sensor chip (GE Healthcare) Protein A (Pierce) was coupled to the chip surface using an amine coupling kit (GE Healthcare). Protein A was coupled on flow cell 1 and 2 (or alternatively 3 and 4) using a BIACORE® T200. […] The amount of supernatant or purified protein (as well as the concentration) injected during the capture stage varied between runs and is specified in the header of the Tables 3-11. At the end of injection of the supernatant or purified antibody the change in response units was measured. This value was reported as Capture Level in Tables 3-11. […] The response units were measured prior to the end of the dissociation phase. […] The sensorgrams were double referenced (flow cell 2 is subtracted from flow cell 1 and a buffer blank). As there were a large number of antibody variants to screen, these were screened across different runs (Tables 3-11). […] A summary of the conditions used in each run is below:
(§2) 2.1. […] In some experiment the antibodies were purified using Protein A chromatography (See 1.4) and purified antibodies were used in BIACORE® (GE Healthcare) experiments.

[2] = target: T1, human TL1A extracellular domain with …; assay: SPR Run 6, purified Ab captured on Protein A, TL1A 5 ug/mL, timepoint 170
Text: as §1, §2

Binder	TL1A Binding Level (Early) [1] [RU]	TL1A Binding Level (Late) [2] [RU]
320-432 (antibody, human IgG1, name in Kabat numbering, V domains shown, human IgG1, lambda) VH: QVQLVQSGAEVKKPGASVKVSCKASGYTFTQYDINWVRQAPGQGLEWMGWLNPNSGNTGYAQKFQGRVTMTADRSTSTAYMELSSLRSEDTAVYYCAREVPETAAFEYWGQGTLVTVSS VL: QSVLTQPPSVSGAPGQRVTISCTSSSSDIGAGLGVHWYQQLPGTAPKLLIEGYYNRPSGVPDRFSGSKSGTSASLTITGLLPEDEGDYYCQSYDGTLSALFGGGTKLTVLG	116	106
320-436 (antibody, human IgG1, name in Kabat numbering, V domains shown, human IgG1, lambda) VH: QVQLVQSGAEVKKPGASVKVSCKASGYTFTWYDINWVRQAPGQGLEWMGWLNPNSGNTGYAQKFQGRVTMTADRSTSTAYMELSSLRSEDTAVYYCAREVPETAAFEYWGQGTLVTVSS VL: QSVLTQPPSVSGAPGQRVTISCTSSSSDIGAGLGVHWYQQLPGTAPKLLIEGYYNRPSGVPDRFSGSKSGTSASLTITGLLPEDEGDYYCQSYDGTLSALFGGGTKLTVLG	129	118
320-439 (antibody, human IgG1, name in Kabat numbering, V domains shown, human IgG1, lambda) VH: QVQLVQSGAEVKKPGASVKVSCKASGYTFTSSDINWVRQAPGQGLEWMGWLNPNSGNTGYAQKFQGRVTMTADRSTSTAYMELSSLRSEDTAVYYCAREVPETAAFEYWGQGTLVTVSS VL: QSVLTQPPSVSGAPGQRVTISCTSSSSDIGAGLGVHWYQQLPGTAPKLLIEGYYNRPSGVPDRFSGSKSGTSASLTITGLLPEDEGDYYCQSYDGTLSALFGGGTKLTVLG	119	108
320-433 (antibody, human IgG1, name in Kabat numbering, V domains shown, human IgG1, lambda) VH: QVQLVQSGAEVKKPGASVKVSCKASGYTFTDYDINWVRQAPGQGLEWMGWLNPNSGNTGYAQKFQGRVTMTADRSTSTAYMELSSLRSEDTAVYYCAREVPETAAFEYWGQGTLVTVSS VL: QSVLTQPPSVSGAPGQRVTISCTSSSSDIGAGLGVHWYQQLPGTAPKLLIEGYYNRPSGVPDRFSGSKSGTSASLTITGLLPEDEGDYYCQSYDGTLSALFGGGTKLTVLG	90	83
320-434 (antibody, human IgG1, name in Kabat numbering, V domains shown, human IgG1, lambda) VH: QVQLVQSGAEVKKPGASVKVSCKASGYTFTKYDINWVRQAPGQGLEWMGWLNPNSGNTGYAQKFQGRVTMTADRSTSTAYMELSSLRSEDTAVYYCAREVPETAAFEYWGQGTLVTVSS VL: QSVLTQPPSVSGAPGQRVTISCTSSSSDIGAGLGVHWYQQLPGTAPKLLIEGYYNRPSGVPDRFSGSKSGTSASLTITGLLPEDEGDYYCQSYDGTLSALFGGGTKLTVLG	125	113
320-438 (antibody, human IgG1, name in Kabat numbering, V domains shown, human IgG1, lambda) VH: QVQLVQSGAEVKKPGASVKVSCKASGYTFTSADINWVRQAPGQGLEWMGWLNPNSGNTGYAQKFQGRVTMTADRSTSTAYMELSSLRSEDTAVYYCAREVPETAAFEYWGQGTLVTVSS VL: QSVLTQPPSVSGAPGQRVTISCTSSSSDIGAGLGVHWYQQLPGTAPKLLIEGYYNRPSGVPDRFSGSKSGTSASLTITGLLPEDEGDYYCQSYDGTLSALFGGGTKLTVLG	126	116
320-435 (antibody, human IgG1, name in Kabat numbering, V domains shown, human IgG1, lambda) VH: QVQLVQSGAEVKKPGASVKVSCKASGYTFTLYDINWVRQAPGQGLEWMGWLNPNSGNTGYAQKFQGRVTMTADRSTSTAYMELSSLRSEDTAVYYCAREVPETAAFEYWGQGTLVTVSS VL: QSVLTQPPSVSGAPGQRVTISCTSSSSDIGAGLGVHWYQQLPGTAPKLLIEGYYNRPSGVPDRFSGSKSGTSASLTITGLLPEDEGDYYCQSYDGTLSALFGGGTKLTVLG	92	83
320-437 (antibody, human IgG1, name in Kabat numbering, V domains shown, human IgG1, lambda) VH: QVQLVQSGAEVKKPGASVKVSCKASGYTFTYYDINWVRQAPGQGLEWMGWLNPNSGNTGYAQKFQGRVTMTADRSTSTAYMELSSLRSEDTAVYYCAREVPETAAFEYWGQGTLVTVSS VL: QSVLTQPPSVSGAPGQRVTISCTSSSSDIGAGLGVHWYQQLPGTAPKLLIEGYYNRPSGVPDRFSGSKSGTSASLTITGLLPEDEGDYYCQSYDGTLSALFGGGTKLTVLG	119	109

Other lines, results leading:

TL1A Binding Level (Early) [1] [RU]	TL1A Binding Level (Late) [2] [RU]	Binder
18	8	320-446 (antibody, human IgG1, name in Kabat numbering, V domains shown, human IgG1, lambda) VH: QVQLVQSGAEVKKPGASVKVSCKASGYTFTSYAINWVRQAPGQGLEWMGWLNPNSGNTGYAQKFQGRVTMTADRSTSTAYMELSSLRSEDTAVYYCAREVPETAAFEYWGQGTLVTVSS VL: QSVLTQPPSVSGAPGQRVTISCTSSSSDIGAGLGVHWYQQLPGTAPKLLIEGYYNRPSGVPDRFSGSKSGTSASLTITGLLPEDEGDYYCQSYDGTLSALFGGGTKLTVLG
80	67	320-441 (antibody, human IgG1, name in Kabat numbering, V domains shown, human IgG1, lambda) VH: QVQLVQSGAEVKKPGASVKVSCKASGYTFTSDDINWVRQAPGQGLEWMGWLNPNSGNTGYAQKFQGRVTMTADRSTSTAYMELSSLRSEDTAVYYCAREVPETAAFEYWGQGTLVTVSS VL: QSVLTQPPSVSGAPGQRVTISCTSSSSDIGAGLGVHWYQQLPGTAPKLLIEGYYNRPSGVPDRFSGSKSGTSASLTITGLLPEDEGDYYCQSYDGTLSALFGGGTKLTVLG
124	113	320-442 (antibody, human IgG1, name in Kabat numbering, V domains shown, human IgG1, lambda) VH: QVQLVQSGAEVKKPGASVKVSCKASGYTFTSHDINWVRQAPGQGLEWMGWLNPNSGNTGYAQKFQGRVTMTADRSTSTAYMELSSLRSEDTAVYYCAREVPETAAFEYWGQGTLVTVSS VL: QSVLTQPPSVSGAPGQRVTISCTSSSSDIGAGLGVHWYQQLPGTAPKLLIEGYYNRPSGVPDRFSGSKSGTSASLTITGLLPEDEGDYYCQSYDGTLSALFGGGTKLTVLG
37	13	320-447 (antibody, human IgG1, name in Kabat numbering, V domains shown, human IgG1, lambda) VH: QVQLVQSGAEVKKPGASVKVSCKASGYTFTSYSINWVRQAPGQGLEWMGWLNPNSGNTGYAQKFQGRVTMTADRSTSTAYMELSSLRSEDTAVYYCAREVPETAAFEYWGQGTLVTVSS VL: QSVLTQPPSVSGAPGQRVTISCTSSSSDIGAGLGVHWYQQLPGTAPKLLIEGYYNRPSGVPDRFSGSKSGTSASLTITGLLPEDEGDYYCQSYDGTLSALFGGGTKLTVLG
108	97	320-440 (antibody, human IgG1, name in Kabat numbering, V domains shown, human IgG1, lambda) VH: QVQLVQSGAEVKKPGASVKVSCKASGYTFTSQDINWVRQAPGQGLEWMGWLNPNSGNTGYAQKFQGRVTMTADRSTSTAYMELSSLRSEDTAVYYCAREVPETAAFEYWGQGTLVTVSS VL: QSVLTQPPSVSGAPGQRVTISCTSSSSDIGAGLGVHWYQQLPGTAPKLLIEGYYNRPSGVPDRFSGSKSGTSASLTITGLLPEDEGDYYCQSYDGTLSALFGGGTKLTVLG
107	95	320-444 (antibody, human IgG1, name in Kabat numbering, V domains shown, human IgG1, lambda) VH: QVQLVQSGAEVKKPGASVKVSCKASGYTFTSLDINWVRQAPGQGLEWMGWLNPNSGNTGYAQKFQGRVTMTADRSTSTAYMELSSLRSEDTAVYYCAREVPETAAFEYWGQGTLVTVSS VL: QSVLTQPPSVSGAPGQRVTISCTSSSSDIGAGLGVHWYQQLPGTAPKLLIEGYYNRPSGVPDRFSGSKSGTSASLTITGLLPEDEGDYYCQSYDGTLSALFGGGTKLTVLG
